T1: human OX40 (human, UniProt P43489 29-216, limits assumed)
T1 sequence (looked up): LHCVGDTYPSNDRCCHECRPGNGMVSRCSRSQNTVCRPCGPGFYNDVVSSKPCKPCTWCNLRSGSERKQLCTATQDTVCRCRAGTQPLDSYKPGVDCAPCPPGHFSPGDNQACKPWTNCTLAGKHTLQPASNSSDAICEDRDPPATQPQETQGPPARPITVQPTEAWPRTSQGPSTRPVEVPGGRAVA

T2: human GITR (human, UniProt Q9Y5U5 26-161, limits assumed)
T2 sequence (looked up): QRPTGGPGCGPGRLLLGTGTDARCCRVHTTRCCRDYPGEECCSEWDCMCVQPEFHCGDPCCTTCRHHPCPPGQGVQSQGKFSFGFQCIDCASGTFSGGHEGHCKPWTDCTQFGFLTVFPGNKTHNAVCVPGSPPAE

T3: cCD137-mFc-Avi (cynomolgus; mouse, one biotin on the Avi sequence of each monomer (BirA); unbiotinylated in the SPR of Example 5.6)
T3 construct: also called cyno CD137-mFc-Avi; dimeric cynomolgus CD137; not shown: mouse IgG2a Fc domain (mIgG2a Fc)
T3 chain: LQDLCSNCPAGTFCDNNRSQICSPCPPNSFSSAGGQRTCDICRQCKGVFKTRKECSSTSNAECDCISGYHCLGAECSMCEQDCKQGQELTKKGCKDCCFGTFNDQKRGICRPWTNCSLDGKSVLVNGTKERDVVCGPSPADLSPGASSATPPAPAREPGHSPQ

B1: FS22-053-008/HelD1.3 (bispecific antibody, human IgG1, kappa)
heavy: QVQLQESGPGLVRPSQTLSLTCTVSGSTFSGYGVNWVRQPPGRGLEWIGMIWGDGNTDYNSALKSRVTMLVDTSKNQFSLRLSSVTAADTAVYYCARERDYRLDYWGQGSLVTVSSASTKGPSVFPLAPSSKSTSGGTAALGCLVKDYFPEPVTVSWNSGALTSGVHTFPAVLQSSGLYSLSSVVTVPSSSLGTQTYICNVNHKPSNTKVDKKVEPKSCDKTHTCPPCPAPELLGGPSVFLFPPKPKDTLMISRTPEVTCVVVDVSHEDPEVKFNWYVDGVEVHNAKTKPREEQYNSTYRVVSVLTVLHQDWLNGKEYKCKVSNKALPAPIEKTISKAKGQPREPQVYTLPPSRDELNPPYLFSNQVSLTCLVKGFYPSDIAVEWESNGQPENNYKTTPPVLDSDGSFFLYSKLTVDYWRWLEGNVFSCSVMHEALHNHYTQKSLSLSPG
light: DIQMTQSPASLSASVGETVTITCRASGNIHNYLAWYQQKQGKSPQLLVYNAKTLADGVPSRFSGSGSGTQYSLKINSLQPEDFGSYYCQHFWSTPRTFGGGTKLEIKRTVAAPSVFIFPPSDEQLKSGTASVVCLLNNFYPREAKVQWKVDNALQSGNSQESVTEQDSKDSTYSLSSTLTLSKADYEKHKVYACEVTHQGLSSPVTKSFNRGEC
notes: Mock mAb^2, IgG1 without LALA; also called FS22-053-008/HeID1.3
B2: FS22-172-002/HelD1.3 (bispecific antibody, human IgG1, kappa)
heavy: B1 heavy with N358P, P359F, P360Q, Y361M, L362P, F363P, S364Y, D417G, Y418A, W419D
light: B1 light
B3: FS22-172-006/HelD1.3 (bispecific antibody, human IgG1, kappa)
heavy: B1 heavy with N358R, P359K, P360Y, L362P, F363P, S364Y, V367L, D417G, Y418A, W419D
light: B1 light
B4: FS22-053-009/HelD1.3 (bispecific antibody, human IgG1, kappa)
heavy: B1 heavy with D417E, Y418H, W419T, E423D
light: B1 light
notes: Mock mAb^2, IgG1 without LALA; also called FS22-053-009/HeID1.3
B5: FS22-053-011/HelD1.3 (bispecific antibody, human IgG1, kappa)
heavy: B1 heavy with L422T, E423D
light: B1 light
notes: Mock mAb^2, IgG1 without LALA; also called FS22-053-011/HeID1.3
B6: FS22-053-010/HelD1.3 (bispecific antibody, human IgG1, kappa)
heavy: B1 heavy with W419M, E423D
light: B1 light
notes: Mock mAb^2, IgG1 without LALA; also called FS22-053-010/HeID1.3
B7: FS22-053-012/HelD1.3 (bispecific antibody, human IgG1, kappa)
heavy: B1 heavy with Y418H, W419M
light: B1 light
notes: Mock mAb^2, IgG1 without LALA; also called FS22-053-012/HeID1.3
B8: FS22-172-004, yeast-displayed clone (designed binder)
chain: GQPREPQVYTLPPSRDELNYIYPPYNQVSLTCLVKGFYPSDIAVEWESNGQPENNYKTTPPVLDSDGSFFLYSKLTVGADRWLEGNVFSCSVMHEALHNHYTQKSLSLSPG
B9: FS22-053-010, yeast-displayed clone (designed binder)
chain: B8 chain with Y20P, I21P, P23L, P24F, Y25S, G78D, A79Y, D80M, E84D
B10: FS22-172-003, yeast-displayed clone (designed binder)
chain: B8 chain with N19P, Y22I
B11: FS22-172-002, yeast-displayed clone (designed binder)
chain: B8 chain with N19P, Y20F, I21Q, Y22M
B12: FS22-053-009, yeast-displayed clone (designed binder)
chain: B8 chain with Y20P, I21P, P23L, P24F, Y25S, G78E, A79H, D80T, E84D
B13: FS22-053-008, yeast-displayed clone (designed binder)
chain: B8 chain with Y20P, I21P, P23L, P24F, Y25S, G78D, A79Y, D80W
B14: FS22-053-012, yeast-displayed clone (designed binder)
chain: B8 chain with Y20P, I21P, P23L, P24F, Y25S, G78D, A79H, D80M
B15: FS22-172-005, yeast-displayed clone (designed binder)
chain: B8 chain with N19Q, Y20Q, I21V
B16: FS22-172-006, yeast-displayed clone (designed binder)
chain: B8 chain with N19R, Y20K, I21Y, V28L
B17: FS22-172-001, yeast-displayed clone (designed binder)
chain: B8 chain with N19P, Y20F, I21V, Y22M
B18: FS22-053-011, yeast-displayed clone (designed binder)
chain: B8 chain with Y20P, I21P, P23L, P24F, Y25S, G78D, A79Y, D80W, L83T, E84D

Substitutions are numbered along the chain they refer to.

human CD40, sequence (P25942 21-193 limits assumed): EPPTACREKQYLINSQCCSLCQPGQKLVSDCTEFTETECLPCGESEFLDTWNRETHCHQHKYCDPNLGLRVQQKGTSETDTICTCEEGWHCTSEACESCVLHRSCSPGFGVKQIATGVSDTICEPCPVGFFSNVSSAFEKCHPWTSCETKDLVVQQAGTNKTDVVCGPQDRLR
T4 sequence (Q07011 24-186): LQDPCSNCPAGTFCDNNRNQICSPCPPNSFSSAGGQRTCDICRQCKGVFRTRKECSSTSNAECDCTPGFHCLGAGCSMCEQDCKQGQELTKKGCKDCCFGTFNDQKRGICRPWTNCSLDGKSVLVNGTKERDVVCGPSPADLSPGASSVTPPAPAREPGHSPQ

For the first experiment, the target named is human CD137, full length, on cells (human, UniProt Q07011 24-255). Kind of experiment: cell-based or functional assay.
human CD137, full length, on cells, sequence (Q07011 24-255): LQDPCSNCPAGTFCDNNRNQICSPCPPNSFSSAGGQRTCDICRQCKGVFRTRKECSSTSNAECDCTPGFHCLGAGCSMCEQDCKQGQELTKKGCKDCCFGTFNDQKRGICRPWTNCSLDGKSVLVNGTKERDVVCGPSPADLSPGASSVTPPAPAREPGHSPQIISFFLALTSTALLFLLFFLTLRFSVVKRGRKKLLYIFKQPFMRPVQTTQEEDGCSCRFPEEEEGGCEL
Turning to B1, the “NF-kB signalling, HEK.FRT.luc.hCD137, +XL (EC50 nM)” value (shortened to “NF-kB signalling”) was 26.3 nM.
The same measure, in the same setting: then B2, with 124 nM; and B3, with 382 nM; and B4, with 64.6 nM.
In the case of B5, the “NF-kB signalling” value came out at 32.8 nM.
Same read-out and setting: for B6 the value was 47.5 nM.
With B7, the “NF-kB signalling” value came out at 119 nM.

The next experiment addresses human CD40 (human, UniProt P25942 21-193). Kind of experiment: SPR (Biacore T200), receptor amine-coupled to CM5 chip. Here is the method:
(§1) The specificity of the anti-human CD137 Fcabs for human CD137 compared to other related TNFSFR family members was tested. 8 of the Fcabs were tested in mock mAb² (HeID1.3) format and measured by SPR in a Biacore T200 (GE Healthcare) by testing for binding to other human TNFRSF receptors: CD40, OX40 and GITR. Amine coupling (amine coupling kit, GE Healthcare, BR-1000-50) was used to coat human CD40, GITR and OX40 to approximately 1000 RU in Biacore CM5 chips (GE Healthcare, cat no 29149603). […] The chip was regenerated by injection of 10 mM glycine pH 2.5 for 12 s at 30 μl/min. Antibodies specific to the different TNFRSF members were used as positive controls to verify Biacore chip coating. Data was double reference subtracted and analysed using BIAevaluation 3.2 software.
With B1, the binding result was “no binding (tested: starting at 1 µM)”.
In the case of B4, the binding result is recorded as “no binding (tested: starting at 1 µM)”.
Same read-out and setting: then B5, with “no binding (tested: starting at 1 µM)”; and B6, with “no binding (tested: starting at 1 µM)”; and B7, with “no binding (tested: starting at 1 µM)”.

For a further experiment, the target named is T1, human OX40. The experiment is described as above. The protocol:
as §1
Take B1: the binding result is reported as “no binding (tested: starting at 1 µM)”.
On to B4, for which the binding result is recorded as “no binding (tested: starting at 1 µM)”.
Same read-out and setting: for B5 the value was “no binding (tested: starting at 1 µM)”; for B6, “no binding (tested: starting at 1 µM)”.
The same measure, in the same setting: for B7 the value was “no binding (tested: starting at 1 µM)”.

A further experiment addresses T2, human GITR. The description is as above. Here is the method:
as §1
As for B1, the binding result is “no binding (tested: starting at 1 µM)”.
On the same count and under the same terms, then B4, with “no binding (tested: starting at 1 µM)”; and B5, with “no binding (tested: starting at 1 µM)”; and B6, with “no binding (tested: starting at 1 µM)”.
Still for that read-out and setting: for B7 the value was “no binding (tested: starting at 1 µM)”.

The next experiment concerns the target T4, hCD137-mFc-Avi (human; mouse, UniProt Q07011 24-186, one biotin on the Avi sequence of each monomer (BirA); unbiotinylated in the SPR of Example 5.6).
T4 construct: Made in-house in HEK293-6E; also called human CD137-mFc-Avi; dimeric human CD137; not shown: mouse IgG2a Fc domain (mIgG2a Fc)
Kind of experiment: flow cytometry of the yeast-displayed clone, 10 nM dimeric human antigen.
B8: the “% APC positive cells” value was over 10%.
Still for that read-out and setting: for B9 the value was over 30%; for B10, over 10%.
Take B11: the “% APC positive cells” value was over 10%.
Same read-out and setting: then B12, with over 30%.
Same read-out and setting: then B13, with over 30%.
As for B14, the “% APC positive cells” value is over 30%.
For B15, the “% APC positive cells” value was over 10%.
The same measure, in the same setting: for B16 the value was over 10%; for B17, over 10%.
Turning to B18, the “% APC positive cells” value is over 30%.

The target of the next experiment is T4, hCD137-mFc-Avi. Kind of experiment: SPR (Biacore), mAb2 captured by anti-human Fab, antigen in solution, 1:1 Langmuir. The protocol:
(§2) An anti-human Fab capture antibody was immobilised on all four flow cells of a CM5 series S chip (GE Healthcare #BR-1005-30) to an average surface density of 6000 RU following the manufacturer's recommendations (GE Healthcare, human Fab capture Kit, #28958325). IEach mAb² was captured to approximately 150 RU by injecting a 3 μg/ml solution of mAb² diluted in HBS-EP+ buffer (GE Healthcare #BR1006-69) for 60 seconds at 30 μl/min. Then different concentrations of human, cyno or mouse CD137 antigen (unbiotinylated human, cyno or mouse CD137-mFc-Avi or human CD137-Avi-His) in HBS-EP+ buffer were flowed over the chip for 3 min at 60 μl/min and then allowed to dissociate for 10 minutes. After each antigen concentration the chip was regenerated by infecting 10 mM glycine pH 2.1 at a flow rate of 30 μl/min for 30 seconds. Buffer HBS-EP+ was injected before the highest concentration of antigen and after the lowest concentration of antigen for reference subtraction, and one of the concentrations at random was repeated twice. The binding kinetics were fit with a 1:1 Langmuir model to generate equilibrium binding constants (KD) for each sample. Data analysis was performed with BiaEvaluation software version 3.2.
As to B1, the Kd came to 4.2 nM.
The same measure, in the same setting: for B5 the value was 5.5 nM.

Another experiment deals with T5, hCD137-Avi-His (human, UniProt Q07011 24-186, single biotin on the Avi sequence (BirA); unbiotinylated in the SPR of Example 5.6).
T5 construct: also called human CD137-Avi-His; monomeric human CD137
T5 sequence (Q07011 24-186): as the sequence (Q07011 24-186) above
Described as above. The protocol:
as §2
Consider B1, for which the “Human monomeric CD137 KD fold difference relative to human dimeric KD” value was found to be 170 fold.
The same measure, in the same setting: then B5, with over 200 fold.

In another experiment the target is T3, cCD137-mFc-Avi. The description is as above. Here is the method:
as §2
Consider B1, for which binding was characterised by a dissociation constant (Kd) of 0.9 nM.
As for B5, the Kd came out at 1.3 nM.

Values taken from patent US20250084176A1 (F STAR BETA, published 2025).
